{
  "source": "paper PMC4288197",
  "about": "“Novel RNA chaperone domain of RNA-binding protein La is regulated by AKT phosphorylation”",
  "key": {"LaΔ1 (LAM deleted)": {"biological_target": "T1, LaΔ1 (LAM deleted) (Homo sapiens, UniProt P05455 1-408, del11-99)", "T1 sequence": "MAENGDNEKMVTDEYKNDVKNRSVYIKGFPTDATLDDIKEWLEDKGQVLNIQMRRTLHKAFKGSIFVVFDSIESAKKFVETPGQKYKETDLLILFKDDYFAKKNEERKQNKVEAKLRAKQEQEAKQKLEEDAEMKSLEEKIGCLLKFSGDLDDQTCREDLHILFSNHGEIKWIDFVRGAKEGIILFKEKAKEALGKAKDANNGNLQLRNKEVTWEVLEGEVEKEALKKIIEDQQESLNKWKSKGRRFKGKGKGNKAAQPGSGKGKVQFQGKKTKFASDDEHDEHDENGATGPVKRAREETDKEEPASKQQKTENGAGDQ", "test": "EMSA; affinity similar to WT; two complexes; 20 mM Tris/HCl pH 8.0, 150 mM NaCl, 1.5 mM MgCl2, 0.5 mM EDTA, 0.5% NP-40 (FP: IGEPAL CA-630, 100 ug/ml bovine gamma globulin), 10 nM RNA, room temperature", "details": "protein: recombinant; tags: His; label: 32P (EMSA) or 5'-FAM (FP); hairpin (predicted)"}, "La-Δlinker": {"biological_target": "T2, La-Δlinker (Homo sapiens, UniProt P05455 1-408, del170-230)", "T2 sequence": "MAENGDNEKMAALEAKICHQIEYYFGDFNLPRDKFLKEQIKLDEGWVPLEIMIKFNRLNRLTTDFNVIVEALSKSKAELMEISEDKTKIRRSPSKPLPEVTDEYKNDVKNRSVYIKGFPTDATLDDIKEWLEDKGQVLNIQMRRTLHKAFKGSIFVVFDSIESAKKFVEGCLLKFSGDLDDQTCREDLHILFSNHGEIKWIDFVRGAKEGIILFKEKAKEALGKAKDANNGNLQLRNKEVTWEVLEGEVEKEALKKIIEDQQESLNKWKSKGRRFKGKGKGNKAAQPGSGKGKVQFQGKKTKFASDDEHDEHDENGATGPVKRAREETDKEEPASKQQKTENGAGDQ", "test": "EMSA; 20 mM Tris/HCl pH 8.0, 150 mM NaCl, 1.5 mM MgCl2, 0.5 mM EDTA, 0.5% NP-40 (FP: IGEPAL CA-630, 100 ug/ml bovine gamma globulin), 10 nM RNA, room temperature", "details": "protein: recombinant; tags: His; label: 32P (EMSA) or 5'-FAM (FP); hairpin (predicted)"}, "La WT (LARP3) [1]": {"biological_target": "T3, La WT (LARP3) (Homo sapiens, UniProt P05455 1-408)", "T3 sequence": "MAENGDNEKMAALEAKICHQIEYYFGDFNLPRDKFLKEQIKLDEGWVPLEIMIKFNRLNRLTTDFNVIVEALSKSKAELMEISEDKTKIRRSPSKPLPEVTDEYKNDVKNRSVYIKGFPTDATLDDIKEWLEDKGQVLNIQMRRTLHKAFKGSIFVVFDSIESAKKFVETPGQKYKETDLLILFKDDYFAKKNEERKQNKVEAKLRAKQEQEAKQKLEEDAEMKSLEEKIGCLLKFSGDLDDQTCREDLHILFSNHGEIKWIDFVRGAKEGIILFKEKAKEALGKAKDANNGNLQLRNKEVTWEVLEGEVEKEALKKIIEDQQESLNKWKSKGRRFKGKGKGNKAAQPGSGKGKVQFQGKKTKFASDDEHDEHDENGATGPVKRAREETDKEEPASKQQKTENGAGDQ", "test": "EMSA; 20 mM Tris/HCl pH 8.0, 150 mM NaCl, 1.5 mM MgCl2, 0.5 mM EDTA, 0.5% NP-40 (FP: IGEPAL CA-630, 100 ug/ml bovine gamma globulin), 10 nM RNA, room temperature", "details": "protein: recombinant; tags: His; label: 32P (EMSA) or 5'-FAM (FP); hairpin (predicted)"}, "LaΔRCD": {"biological_target": "T4, LaΔRCD (Homo sapiens, UniProt P05455 1-408, R334G;R335G;F336V;K337G;G338G;K339G;F357V;K360G;K361G;T362T;K363G;F364V)", "T4 sequence": "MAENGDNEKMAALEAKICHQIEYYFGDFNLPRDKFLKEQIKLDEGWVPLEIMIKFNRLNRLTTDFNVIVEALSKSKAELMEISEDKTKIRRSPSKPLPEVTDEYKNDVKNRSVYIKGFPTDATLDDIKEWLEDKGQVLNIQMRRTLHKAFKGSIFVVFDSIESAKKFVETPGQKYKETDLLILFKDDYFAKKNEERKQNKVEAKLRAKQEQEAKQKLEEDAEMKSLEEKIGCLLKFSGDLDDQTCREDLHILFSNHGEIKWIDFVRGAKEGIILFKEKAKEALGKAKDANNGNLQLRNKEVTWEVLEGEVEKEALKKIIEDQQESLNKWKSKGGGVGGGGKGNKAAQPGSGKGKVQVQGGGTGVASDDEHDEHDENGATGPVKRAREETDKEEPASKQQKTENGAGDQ", "test": "EMSA; similar to WT; two complexes at high La; 20 mM Tris/HCl pH 8.0, 150 mM NaCl, 1.5 mM MgCl2, 0.5 mM EDTA, 0.5% NP-40 (FP: IGEPAL CA-630, 100 ug/ml bovine gamma globulin), 10 nM RNA, room temperature", "details": "protein: recombinant; tags: His; label: 32P (EMSA) or 5'-FAM (FP); hairpin (predicted)"}, "La WT (LARP3) [2]": {"biological_target": "T3, La WT (LARP3)", "test": "fluorescence polarization; 5'-FAM RNA; 20 mM Tris/HCl pH 8.0, 150 mM NaCl, 1.5 mM MgCl2, 0.5 mM EDTA, 0.5% NP-40 (FP: IGEPAL CA-630, 100 ug/ml bovine gamma globulin), 10 nM RNA, room temperature", "details": "protein: recombinant; tags: His; label: 32P (EMSA) or 5'-FAM (FP); hairpin (predicted)"}, "La WT (LARP3) [3]": {"biological_target": "T3, La WT (LARP3)", "test": "competition; vs labeled D1-AUG; 20 mM Tris/HCl pH 8.0, 150 mM NaCl, 1.5 mM MgCl2, 0.5 mM EDTA, 0.5% NP-40 (FP: IGEPAL CA-630, 100 ug/ml bovine gamma globulin), 10 nM RNA, room temperature", "details": "protein: recombinant; tags: His"}},
  "data": [
    {"binder": "GCUGCCCAGGAAGAGCCCCAGCCAUGGAACACCAGCUCCUGUGCUGC (structured_RNA)", "note": "[D1-AUG]", "values": [
      {"measurement": "binding result", "setting": "LaΔ1 (LAM deleted)", "result": "binds"},
      {"measurement": "binding result", "setting": "La-Δlinker", "result": "no binding"},
      {"measurement": "Kd", "setting": "La WT (LARP3) [1]", "result": 80.3, "unit": "nM"},
      {"measurement": "binding result", "setting": "LaΔRCD", "result": "binds"},
      {"measurement": "Kd", "setting": "La WT (LARP3) [2]", "result": 76, "unit": "nM"}
    ]},
    {"binder": "CAGGAAGAGCCCCAGCCAGGGAACACCAGCUCCUG (ssRNA)", "note": "[D1-mu2]", "values": [
      {"measurement": "binding result", "setting": "La WT (LARP3) [3]", "result": "binds"}
    ]},
    {"binder": "CAGGAAGAGCCCCACAGAUGCACCACCAGCUCCUG (ssRNA)", "note": "[D1-mu3]", "values": [
      {"measurement": "binding result", "setting": "La WT (LARP3) [3]", "result": "no binding"}
    ]}
  ]
}
